To fix the notation:
T1: DegP^S210A/Y444A (Escherichia coli), P0C0V0
T1 chain: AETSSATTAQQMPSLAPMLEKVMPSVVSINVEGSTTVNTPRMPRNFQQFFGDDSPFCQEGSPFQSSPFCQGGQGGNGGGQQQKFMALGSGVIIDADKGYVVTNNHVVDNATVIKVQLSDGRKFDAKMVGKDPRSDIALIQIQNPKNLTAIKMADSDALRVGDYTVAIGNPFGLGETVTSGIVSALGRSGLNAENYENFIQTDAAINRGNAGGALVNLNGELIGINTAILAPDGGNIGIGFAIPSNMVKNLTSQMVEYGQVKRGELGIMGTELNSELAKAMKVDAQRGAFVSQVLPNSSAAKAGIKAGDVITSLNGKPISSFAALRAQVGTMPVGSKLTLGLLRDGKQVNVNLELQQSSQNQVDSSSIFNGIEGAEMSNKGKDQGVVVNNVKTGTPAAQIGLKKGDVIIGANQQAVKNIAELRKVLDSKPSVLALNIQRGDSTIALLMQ

B1: DegP^S210A/Y444A, P0C0V0 27-474 (enzyme)
chain: T1 chain
B2: DegP^S210A active-site mutant (enzyme, Escherichia coli, UniProt P0C0V0 27-474, looked up)
chain: T1 chain with A444Y

The target of series [1] is DegP (Escherichia coli, UniProt P0C0V0). It is filed as biochemical. The conditions noted are these: reporter 100 μM; no activator; 23 °C, 50 mM sodium phosphate pH 8, 100 mM NaCl.
Chain of DegP (P0C0V0 27-474): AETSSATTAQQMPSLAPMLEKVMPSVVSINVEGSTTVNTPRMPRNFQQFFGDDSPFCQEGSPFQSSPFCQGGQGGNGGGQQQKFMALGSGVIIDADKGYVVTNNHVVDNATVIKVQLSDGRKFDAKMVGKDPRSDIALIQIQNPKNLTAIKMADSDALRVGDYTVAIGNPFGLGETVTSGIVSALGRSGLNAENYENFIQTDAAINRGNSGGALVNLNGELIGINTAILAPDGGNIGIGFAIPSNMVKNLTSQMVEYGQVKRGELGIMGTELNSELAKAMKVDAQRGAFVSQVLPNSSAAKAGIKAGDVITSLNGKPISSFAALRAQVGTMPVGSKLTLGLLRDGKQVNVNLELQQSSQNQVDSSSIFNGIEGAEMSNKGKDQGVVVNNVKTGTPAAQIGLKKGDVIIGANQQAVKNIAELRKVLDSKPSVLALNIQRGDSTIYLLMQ
Series [2] has as its target B2. The series is described as follows: crystal structure.
Series [3] deals with T1, DegP^S210A/Y444A (Escherichia coli), …. The series can be described thus: SEC. The conditions noted are these: remark: other sources report otherwise.
The target is the same in series [4]. The series can be described thus: SEC. The conditions noted are these: remark: other sources report otherwise.
Series [5] deals with the molecule itself. The series can be described thus: SEC. On the technique in general: Size exclusion chromatography separates by hydrodynamic size, large species first.
Series [6] deals with the molecule itself. The series can be described thus: AUC.

Numbering of substitutions follows the chain as printed. In names and notes the source's numbering stands. Several values for one entry are separate records, joined by “and”; a condition that tells them apart may be missing. Equal entries are not always repeated.

4 molecules from publication PMC3075617 (Cell, 2011) can be followed below.

What is called stoichiometry N is a count of units in the complex or per binding partner.

In the case of Abz-KASPVSLGY^NO2D [reporter peptide], in series [1], the “rate of reporter peptide cleavage by DegP alone” value is on record as 0.027 min^−1 DegP^−1.
Regarding DNYRGYSLGNWVSAAKFESNFNTQATNRNTDGSTDYGILQI (peptide, UniProt P00698 36-76, looked up) [18-58 polypeptide (lysozyme residues 18-58 with the cysteines mutated to serines)], the binding result in series [2] was “binds”.
As for B1, the stoichiometry N in series [3] and in series [4] was 6 in each case.
Take B2: the “stoichiometry N” value in series [5] is 6; in series [6], 18 and 24 and 30.
